Reference: the DeepSol protein solubility set

Assay: soluble on expression in E. coli; label from the status in PepcDB or PDB records

Row | Sequence | soluble on expression in E. coli
1 | GMGGAALPDNGWPADRIDTESAHSARIYDYIIGGKDYYPADKEAGDAMSREWPALPVHMRANRDWMNRAVAHLAKEAGIRQFLDIGTGIPTSPNLHEIAQSVAPESRVVYVDNDPIVLTLSQGLLASTPEGRTAYVEADMLDPASILDAPELRDTLDLTRPVALTVIAIVHFVLDEDDAVGIVRRLLEPLPSGSYLAMSIGTAEFAPQEVGRVAREYAARNMPMRLRTHAEAEEFFEGLELVEPGIVQVHKWHPDAATADGIRDEDIAMYGAVARKP | soluble
2 | MGSDKIHHHHHHMTERFQQKNISVPDGIWIMKQTWNDVLFAHWPVDVSILRALVPSVLELDTYNGQAWISMLPFMLTNLRARYLPVIPGARAFPELNLRTYVTYKGKPGIYFFSLDADHRLAVLGARTFFHLPYFYADMKSEKNGDAIDYVSKRKNDKEAAFHAAYRPISAPFTAEKDSLDYWLTDDTGSTPLIAISSITKTSIIIRGCCKTPKQKFQSIR | not soluble
3 | PDVSVQEMVSAYTTFVNKGIRVNPLPITRIEDQYGNVVAQFSPNMVEVLPPDAAYKMLYMLKSVVDGGTGSRLRYRYGFKLDMGGKTGTTQNNSD | not soluble
4 | MAHHHHHHMKEDESDEPVQKKEYEKTFWEQIGKPKHILAPMVDLSELAFRLLCRNYNCHLTFTPMLHAKNFVEHEKYRKSYFQSCEKDEPVIAQFCGNNSKIILNAIEYIKNEVNAVDLNLGCPQQIAKKGNYGAFLLQKHDEVVNLVSDITNNCNIPITCKIRKIDQDYQKTLNLCYDLQSRNVKMITVHGRTKEEKGTNIKQCDYEIIKIIKERLNIPIIANGSIEHFEDIQKCLNYTKADAVMCAEILLEKPYFFSNQNVHTVDVVNEYYDLFLQYESNTKYLKGHLFKMLYKYFQVHTDLRDMLNNCHSLDDYVNFRSILNEKRSSGVLTESSLSWYRRYRKTE | not soluble
5 | MSLSTQSEAALEAGLIATLRQMDYEYVQIVEEDNLYANFKRQLEIHNRKRLEEHGRTEFTAEEFEKILIYLEGGTRFEKAKKLRDLYPLDTADGQRIWVEFLNRQQWCQNEFQVSNQITVEGRKKCRYDVTILINGLPLVQIELKRRGVELKQAYNQIQRYHKTSFHGLFDYIQLFVISNGVNTRYFANNPNSGYKFTFNWTDAANHPFNELDKFAVFFLEKCTLGKIIGKYIVLHEGDKCLMVLRPYQFYAVEKILDRVQNSNDNGYIWHTTGAGKTLTSFKAAQLVSELDDVDKVMFVVDRHDLDTQTQSEYEAFEPGAVDSTDNTDELVKRLQSNSKIIITTIQKLNAAVSKTWYSSKIDAIRHSRIVMIFDECHRSHFGDSHKKIMKFFGNAQIFGFTGTPIFTENAVDGHTTKEIFGNCLHKYLIKDAIADENVLGFLVEYYHGNEIVDNDNQARMEEIAKFILNNFNKSTFDGEFDALFAVQSVPMLIRYYKIFRSLNPKIRIGAVFTYAANNSQDDEQTGMGTGQYAKESVGEADELQAIMDDYNENFGTSFTTENFRAYYDDINLRMKKKKADMKPLDLCLVVGMFLTGFDSKKLNTLYVDKNMEYHGLLQAFSRTNRVLNEKKRFGKIVCFRDLKNNVDTSIKLFSNSDNPEDIVRPPFEKVKQEYKSLSTDFLQKYPTPSSIDFLQSENDKKNFVLAFRDIIRKHAEIQIYEDYSEDAEDLGMTEQQFNDYKSKYLDITVGFIDPPAAPSTVAEDPVPYGNNQGLEDIDFCLELLHSDIINVAYILALINDLDPYSDDYSEKRQNIIDTMIKDAGMRGKAKLIDGFIKKNVDEDKENFMNGRNKADGTNELEERLNQYIVSERNKAVNDLADEEQISAEVLNHYMKEYDYLQKEQPEIIQKALKEKHLGLIKTRRALTRIMERLRSIIKTFNEGHHHHHH | soluble
6 | MGSDKIHHHHHHMRNIVKRFGSLVANDHINFEVKRGEIHGLLGENGAGKTTLMNILYGIYQPDEGEIIFEGKKVRFKSPKDAISAGIGMVHQHFMLVPRMNVLQNIVLGYRTPSDPLINHRWVEERIERLSEKYGIDVALYEVIMNLSVGEEQRVEILKALFRDVKLLILDEPTAVLTPQEVDSLFYALKSMTKSGLTIIFITHKLKEALKVTDRITVLRRGRKVGTVITSETNERELTRMMVGRDIVLDITKPPSTPGREVLRVEDLWVRDERGNYAVKGVSFSIREGEIFGIAGVSGNGQKELEEAIAGLRKVERGRIILDGKDITAKGVAEREDIAYIPEDRIGVGLAPSLSVLENLMLKDFKKYKKRFSLNFEEMEKRAMSLVEEFSVKTPSLHSPAGTLSGGNIQRLILARELSRNPRLIIASQPTRGLDVAGIDYVRRRLIEAAMRGSAVLLISEDLDEIFQLSDRIGVMYEGEIRGIVDRKNANYEKIGYLMAGGLEVAA | not soluble
7 | EDKIMSYNAFFWMWVHDMLIDSIKWRDEHGRCINKDKGKTCIKGCNKKCICFQKWVEQKKTEWGKIKDHFRKQKDIPKDWTHDDFLQTLLMKDLLLEIIQDTYGDANEIKRIEALLEQAGVGGIDFAALAGLYTKGFVAEKDTTIDKLLQHEQKEADKCLKTHTDDTCPPQEDRSVARS | soluble
8 | MRMVDIISKKRDGKALSTEEIQFFIDGYTNGEIPDYQASALAMAIFFQDMNDQERADLTMAMVGSGDTIDLSEIEGIKVDKHSTGGVGDTTTLVLAPLVAAVGVPVAKMSGRGLGHTGGTIDKLESIEGFHIELDKKDFIDLVNRDKVAVIGQSGNLTPADKKMYALRDVTGTVNSIPLIASSIMSKKIAAGADAIVLDVKTGAGAFMKTDEDAENLAHAMVRIGNNVGRNTMAVISDMSQPLGEAIGNALEVKEAIDTLKGQGPEDLTELVLVLGSQMVVLAKQAETLDEARAKLIEVIENGAALEKFKTFLSNQGGDASIVDHPEKLPQAKYQIEVPAKTSGFVSQIVADEIGIAAMILGAGRATKEDEINLAVGLMLRKKVGDAVKEGESLVTIFADQEDVENVKAKIYENIQISDHAIAPTLVHKVITE | not soluble
9 | MGTVMIRNVYKGVHNMKLENGWETSFLEVVQNSEFKKEALLSQLLCQDSEEVEELVDDYGYEELVEREHDDELAEILGEELFSEMERQVFLSSNPEEKLISFVNGLGFHVLDWIVLLETEFGIDSANFTSDAVKVLEKRFRQFPYIEDKTIFDMTFGESMDVLESVTGLQLKEKMNV | not soluble
10 | MPIPLYLQDWWLDAVCGFDEWMAFVLEEEGTVSGVMPCYMPVPGHISMPPFTQFLGSYSFIGINEDSTTSFRAHRRVHDMLRSMLPPHKSFMVQYSKDFTDWLPYYWQGYSQTTRYTYRIDLSPGIDVVRMAIRPDAMKKIRKAERDGLRCTSATVDDLLRLCRISMSRQEAKGFAAETLQRLAEVAIERHAGEIVGCEDSEGRLLAAVFLAHDHNTAYTIASGQIREGQGRNAGAFVLYEAIWRACEMEGIHTFDFEGSMLEGIEGFFRSFGGIQTPYFRLSKGRIGLYGRLRRKWRAFHDTGQQKQV | not soluble
11 | MGSDKIHHHHHHMEKDKKIPAKIYPFYPNGQFYFERGVEAFRDQRIKEAIRYLVRASELEPGEAVILCQLAICYTEIGQFHKSNQLLREVLEQRNGNMEYCYYFIANNFAYMKDYRRALQYANRYLDSSTDGEYTEEAKDLIEVLLEETPFGETIENGFSKLEQEFYSYKKEINRYLAEEDSASACDILRKVIDEKPNFWPAYNQLASLYFEQLKEEEGVRVLSDLLSRNPGNLLGICDLFIYHFYKGNRKEADELYLELRDVLPVLAHHKEKLGLIHAMMGEYEEADDLLEQVADLEVTERSKYYYFRAKSSYYLGDVEGAKMFWHSFLECDLYEDVRFPWEQEPDLTNDTRLVLEMLQEEDDLTHMLGVYALTISGNRPELVLFHPLLDMSDWSYMEHLMFTNFDYFPDGAIEQNGYLIAKAMIILKENGILLNEEYMALYKQMFSLVLIDAGKDLILGRYTIETVASAIAKLFLPHLKLQLVEEFECSKCARDIERVLSR | not soluble
12 | MTKTNLITGFLGSGKTTSILHLLAHKDPAEKWAVLVNEFGEVGIDGALLADSGALLKEIPGGCMCCVNGLPMQVGLNTLLRQGKPDRLLIEPTGLGHPKQILDLLTAPVYEPWIDLRATLCILDPRLLLDQQSVANENFRDQLASADIIIANKTDRATAQSDAALQQWWRQYGGDRQLIHAEHGQIDGKLLDLPRQNLAELPASAAHSHTHASKKGLAALNLPAQQRWRRSLNSGQGHQACGWIFDADTVFDTIGLLEWARLAPVGRVKGVMRIQEGLVRINRQGDDLHIETQSVAPPDSRVELISNTETDWNTLQTALLKLRLATHA | not soluble
13 | MAFNQRTVVMIGPGEHYVTAKNEVIKTLLGSCVAVCLYDPKAQVIGMNHFLLAADRRKFTHFLDSRAGYYGVHAMEILINAMLKRGAQRKYLQSKIFGGANVLSLCADNILNHYDIGGMNIDFVRHFLQRERIPIISEDIGGHCGRVIYFDPTDYSVYRSLIEHKYEEIASLQDEEYRYFNQASEDIHSSGVPVVIWSD | soluble
